Bridge positions count the residues as written; N and C are the ends. Square brackets hold non-standard residues; d marks the D form. Ends that are not written are not given here. * marks the point of attachment. Acetyl(2-(4-imidazolyl)) = O=C(Cc1c[nH]cn1)*; Aib = CC(C)(N)C(=O)O
T1: human GIP receptor (human, UniProt P48546 22-466)
T1 sequence (looked up): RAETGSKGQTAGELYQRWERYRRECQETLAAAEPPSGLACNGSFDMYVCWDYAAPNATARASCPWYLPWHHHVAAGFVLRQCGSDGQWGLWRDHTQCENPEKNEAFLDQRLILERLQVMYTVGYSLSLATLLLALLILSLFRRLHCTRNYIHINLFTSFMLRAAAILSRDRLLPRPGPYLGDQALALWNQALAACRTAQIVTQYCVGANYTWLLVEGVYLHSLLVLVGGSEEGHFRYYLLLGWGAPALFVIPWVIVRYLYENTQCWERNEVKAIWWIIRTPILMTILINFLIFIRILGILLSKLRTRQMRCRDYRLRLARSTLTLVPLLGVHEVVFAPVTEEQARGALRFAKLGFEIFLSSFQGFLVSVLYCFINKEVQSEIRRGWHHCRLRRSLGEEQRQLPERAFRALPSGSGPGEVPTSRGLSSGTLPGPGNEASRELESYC


These binders were tested against human GLP-1 receptor (human, UniProt P43220 24-463) (assay: cell-based or functional assay).
With H[Aib]QGTFTSDVSKYLDGQAAQEFVAWLLAGGGPSSGAPPPSC [Triple agonist of SEQ ID NO: 10] the “In vitro activity compared to native peptide (%) vs GLP-1” value (“In vitro activity … (%) vs GLP-1” for short) was 46%. In the case of {Acetyl(2-(4-imidazolyl))}-[Aib]QGTFTSDYSIAMDEIHQKDFVNWLLNTKC (bridge 15-19) [Triple agonist of SEQ ID NO: 94], the “In vitro activity … (%) vs GLP-1” value is reported as 0.5%. With H[Aib]QGTFTSDVSKYLDGQAAQEFVAWLLAGC [Triple agonist of SEQ ID NO: 9] the “In vitro activity … (%) vs GLP-1” value was 32.1%. For {Acetyl(2-(4-imidazolyl))}-[Aib]QGTFTSDYSIAMDEIHQKDFVNWLLAQC (bridge 15-19) [Triple agonist of SEQ ID NO: 85], the “In vitro activity … (%) vs GLP-1” value was 4.3%. {Acetyl(2-(4-imidazolyl))}-[Aib]EGTFTSDYSIAMDEIHQKDFVNWLLAQKC (bridge 15-19) [Triple agonist of SEQ ID NO: 90] was tested, and the “In vitro activity … (%) vs GLP-1” value was 7.4%. H[Aib]QGTFTSDYSKYLDEKRQKEFVQWLLDTKC (bridge 16-20) [Triple agonist of SEQ ID NO: 78] was tested, and the “In vitro activity … (%) vs GLP-1” value was 51%. Y[Aib]QGTFTSDYSKYLDEKRAKDFVQWLLDHHPSSGQPPPSC (bridge 16-20) [Triple agonist of SEQ ID NO: 76] was tested, and the “In vitro activity … (%) vs GLP-1” value was 10.3%. With {Acetyl(2-(4-imidazolyl))}-[Aib]QGTFTSDYSIAMDEIHQKDFVNWLLNTC (bridge 15-19) [Triple agonist of SEQ ID NO: 87] the “In vitro activity … (%) vs GLP-1” value was 0.9%. For {Acetyl(2-(4-imidazolyl))}-[Aib]QGTFTSDYSKYLDEKRQKEFVQWLLNTC (bridge 15-19) [Triple agonist of SEQ ID NO: 81], the “In vitro activity … (%) vs GLP-1” value was 7.8%. For {Acetyl(2-(4-imidazolyl))}-[Aib]QGTFTSDYSKYLDEKRQKEFVNWLLAQC (bridge 15-19) [Triple agonist of SEQ ID NO: 86], the “In vitro activity … (%) vs GLP-1” value was 28.4%. With Y[Aib]QGTFTSDCSKYLDERAAKDFVQWLLDHHPSSGQPPPS (bridge 16-20) [Triple agonist of SEQ ID NO: 72] the “In vitro activity … (%) vs GLP-1” value was 11.5%. With Y[Aib]QGTFTSDYSKYLDEKAAKEFVQWLLDHHPSSGQPPPSC (bridge 16-20) [Triple agonist of SEQ ID NO: 75] the “In vitro activity … (%) vs GLP-1” value was 35.1%. For H[Aib]EGTFTSDYSIAMDEIHQKDFVNWLLAQKC (bridge 16-20) [Triple agonist of SEQ ID NO: 79], the “In vitro activity … (%) vs GLP-1” value was 41.5%. With {Acetyl(2-(4-imidazolyl))}-[Aib]QGTFTSDYSKYLDEKRQKEFVQWLLDTKC (bridge 15-19) [Triple agonist of SEQ ID NO: 89] the “In vitro activity … (%) vs GLP-1” value was 7.1%. In the case of {Acetyl(2-(4-imidazolyl))}-[Aib]EGTFTSDYSIAMDEIHQKDFVNWLLAQC (bridge 15-19) [Triple agonist of SEQ ID NO: 83], the “In vitro activity … (%) vs GLP-1” value is reported as 47.3%.

These binders were tested against human GCG receptor (human, UniProt P47871 26-477) (assay: cell-based or functional assay).
human GCG receptor, sequence (P47871 26-477): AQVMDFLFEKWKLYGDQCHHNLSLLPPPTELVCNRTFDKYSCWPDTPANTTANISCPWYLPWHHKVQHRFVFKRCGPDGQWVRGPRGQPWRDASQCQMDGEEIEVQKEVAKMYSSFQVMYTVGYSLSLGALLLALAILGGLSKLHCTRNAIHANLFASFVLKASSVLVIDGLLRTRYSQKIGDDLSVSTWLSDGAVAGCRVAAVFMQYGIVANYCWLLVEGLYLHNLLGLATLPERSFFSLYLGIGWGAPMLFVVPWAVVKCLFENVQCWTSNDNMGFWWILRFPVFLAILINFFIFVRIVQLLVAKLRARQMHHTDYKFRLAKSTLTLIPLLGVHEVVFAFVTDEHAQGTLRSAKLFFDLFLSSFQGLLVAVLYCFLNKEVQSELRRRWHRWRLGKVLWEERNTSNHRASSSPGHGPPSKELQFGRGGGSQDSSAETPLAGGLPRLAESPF
H[Aib]QGTFTSDVSKYLDGQAAQEFVAWLLAGGGPSSGAPPPSC [Triple agonist of SEQ ID NO: 10] was tested, and the “In vitro activity compared to native peptide (%) vs Glucagon” value (shortened to “In vitro activity … (%) vs Glucagon”) was less than 0.1%. {Acetyl(2-(4-imidazolyl))}-[Aib]QGTFTSDYSIAMDEIHQKDFVNWLLNTKC (bridge 15-19) [Triple agonist of SEQ ID NO: 94] was tested, and the “In vitro activity … (%) vs Glucagon” value was less than 0.1%. In the case of H[Aib]QGTFTSDVSKYLDGQAAQEFVAWLLAGC [Triple agonist of SEQ ID NO: 9], the “In vitro activity … (%) vs Glucagon” value is reported as 0.13%. {Acetyl(2-(4-imidazolyl))}-[Aib]QGTFTSDYSIAMDEIHQKDFVNWLLAQC (bridge 15-19) [Triple agonist of SEQ ID NO: 85] was tested, and the “In vitro activity … (%) vs Glucagon” value was less than 0.1%. {Acetyl(2-(4-imidazolyl))}-[Aib]EGTFTSDYSIAMDEIHQKDFVNWLLAQKC (bridge 15-19) [Triple agonist of SEQ ID NO: 90] was tested, and the “In vitro activity … (%) vs Glucagon” value was less than 0.1%. With H[Aib]QGTFTSDYSKYLDEKRQKEFVQWLLDTKC (bridge 16-20) [Triple agonist of SEQ ID NO: 78] the “In vitro activity … (%) vs Glucagon” value was 14%. For Y[Aib]QGTFTSDYSKYLDEKRAKDFVQWLLDHHPSSGQPPPSC (bridge 16-20) [Triple agonist of SEQ ID NO: 76], the “In vitro activity … (%) vs Glucagon” value was 47.6%. With {Acetyl(2-(4-imidazolyl))}-[Aib]QGTFTSDYSIAMDEIHQKDFVNWLLNTC (bridge 15-19) [Triple agonist of SEQ ID NO: 87] the “In vitro activity … (%) vs Glucagon” value was less than 0.1%. {Acetyl(2-(4-imidazolyl))}-[Aib]QGTFTSDYSKYLDEKRQKEFVQWLLNTC (bridge 15-19) [Triple agonist of SEQ ID NO: 81] was tested, and the “In vitro activity … (%) vs Glucagon” value was 0.3%. In the case of {Acetyl(2-(4-imidazolyl))}-[Aib]QGTFTSDYSKYLDEKRQKEFVNWLLAQC (bridge 15-19) [Triple agonist of SEQ ID NO: 86], the “In vitro activity … (%) vs Glucagon” value is reported as 0.4%. With Y[Aib]QGTFTSDCSKYLDERAAKDFVQWLLDHHPSSGQPPPS (bridge 16-20) [Triple agonist of SEQ ID NO: 72] the “In vitro activity … (%) vs Glucagon” value was 1%. Y[Aib]QGTFTSDYSKYLDEKAAKEFVQWLLDHHPSSGQPPPSC (bridge 16-20) [Triple agonist of SEQ ID NO: 75] was tested, and the “In vitro activity … (%) vs Glucagon” value was 8.5%. H[Aib]EGTFTSDYSIAMDEIHQKDFVNWLLAQKC (bridge 16-20) [Triple agonist of SEQ ID NO: 79] was tested, and the “In vitro activity … (%) vs Glucagon” value was 4.9%. {Acetyl(2-(4-imidazolyl))}-[Aib]QGTFTSDYSKYLDEKRQKEFVQWLLDTKC (bridge 15-19) [Triple agonist of SEQ ID NO: 89] was tested, and the “In vitro activity … (%) vs Glucagon” value was 0.7%. In the case of {Acetyl(2-(4-imidazolyl))}-[Aib]EGTFTSDYSIAMDEIHQKDFVNWLLAQC (bridge 15-19) [Triple agonist of SEQ ID NO: 83], the “In vitro activity … (%) vs Glucagon” value is reported as 1.3%.

These binders were tested against T1, human GIP receptor (assay: cell-based or functional assay).
In the case of H[Aib]QGTFTSDVSKYLDGQAAQEFVAWLLAGGGPSSGAPPPSC [Triple agonist of SEQ ID NO: 10], the “In vitro activity compared to native peptide (%) vs GIP” value (shortened to “In vitro activity … (%) vs GIP”) is reported as less than 0.1%. In the case of {Acetyl(2-(4-imidazolyl))}-[Aib]QGTFTSDYSIAMDEIHQKDFVNWLLNTKC (bridge 15-19) [Triple agonist of SEQ ID NO: 94], the “In vitro activity … (%) vs GIP” value is reported as less than 0.1%. With H[Aib]QGTFTSDVSKYLDGQAAQEFVAWLLAGC [Triple agonist of SEQ ID NO: 9] the “In vitro activity … (%) vs GIP” value was less than 0.1%. {Acetyl(2-(4-imidazolyl))}-[Aib]QGTFTSDYSIAMDEIHQKDFVNWLLAQC (bridge 15-19) [Triple agonist of SEQ ID NO: 85] was tested, and the “In vitro activity … (%) vs GIP” value was 0.3%. In the case of {Acetyl(2-(4-imidazolyl))}-[Aib]EGTFTSDYSIAMDEIHQKDFVNWLLAQKC (bridge 15-19) [Triple agonist of SEQ ID NO: 90], the “In vitro activity … (%) vs GIP” value is reported as less than 0.1%. H[Aib]QGTFTSDYSKYLDEKRQKEFVQWLLDTKC (bridge 16-20) [Triple agonist of SEQ ID NO: 78] was tested, and the “In vitro activity … (%) vs GIP” value was 0.12%. Y[Aib]QGTFTSDYSKYLDEKRAKDFVQWLLDHHPSSGQPPPSC (bridge 16-20) [Triple agonist of SEQ ID NO: 76] was tested, and the “In vitro activity … (%) vs GIP” value was 11.7%. With {Acetyl(2-(4-imidazolyl))}-[Aib]QGTFTSDYSIAMDEIHQKDFVNWLLNTC (bridge 15-19) [Triple agonist of SEQ ID NO: 87] the “In vitro activity … (%) vs GIP” value was less than 0.1%. {Acetyl(2-(4-imidazolyl))}-[Aib]QGTFTSDYSKYLDEKRQKEFVQWLLNTC (bridge 15-19) [Triple agonist of SEQ ID NO: 81] was tested, and the “In vitro activity … (%) vs GIP” value was less than 0.1%. {Acetyl(2-(4-imidazolyl))}-[Aib]QGTFTSDYSKYLDEKRQKEFVNWLLAQC (bridge 15-19) [Triple agonist of SEQ ID NO: 86] was tested, and the “In vitro activity … (%) vs GIP” value was 0.2%. Y[Aib]QGTFTSDCSKYLDERAAKDFVQWLLDHHPSSGQPPPS (bridge 16-20) [Triple agonist of SEQ ID NO: 72] was tested, and the “In vitro activity … (%) vs GIP” value was 1.6%. In the case of Y[Aib]QGTFTSDYSKYLDEKAAKEFVQWLLDHHPSSGQPPPSC (bridge 16-20) [Triple agonist of SEQ ID NO: 75], the “In vitro activity … (%) vs GIP” value is reported as 18%. For H[Aib]EGTFTSDYSIAMDEIHQKDFVNWLLAQKC (bridge 16-20) [Triple agonist of SEQ ID NO: 79], the “In vitro activity … (%) vs GIP” value was 1.4%. {Acetyl(2-(4-imidazolyl))}-[Aib]QGTFTSDYSKYLDEKRQKEFVQWLLDTKC (bridge 15-19) [Triple agonist of SEQ ID NO: 89] was tested, and the “In vitro activity … (%) vs GIP” value was less than 0.1%. In the case of {Acetyl(2-(4-imidazolyl))}-[Aib]EGTFTSDYSIAMDEIHQKDFVNWLLAQC (bridge 15-19) [Triple agonist of SEQ ID NO: 83], the “In vitro activity … (%) vs GIP” value is reported as 0.4%.
